B1: Lesavirus 2 (nucleic acid)
DNA: TCTTTCTTTATTTTCTTATGTAACTCTTCTTTTTAAGTTTTATTTTGCCTACTTGTGAGCTTATGCGGGACCACTGTCTTAGACAACCCCACATTTGTCATGAGTAAGTACACGCAACCATTACGATTACTTTTTAACCGTCTGACCTTTTGATAACAACTGAAGTTAGGCGTGAAACATGCATTTATACCAAAGTAGCCCCGCATTTCCCCACTACGGTGGGGGGGCTACCCTACTGGCTTTGGAACTGTAGCCATTATGTGTTGCCTGGCTTTCAGGATCTCACAACACAACAGTTCTCTCACAATGGAATATGGGTGAGATTGCAGTGACATGAACAAGTATCTAGTAGTACATAGACTCAAGCCTAGTTGCCTGCGGAACAACATGTGGTAACACATGCCCCAGGGTCCAAAAGACAAGGGTTAACAGCCCCTTCTAGGTGTCTGTGTGTGAAGAATACTTTAGTAGTGTTGTTATGATCTCACCTGTTAGTACAGAATGAGTATGGCTTGGTGAAGGATGTCCTACAGGTACCCATTATATGGATCTGAGTAGGAGACCACTAGTGGTGGCTTTACCGCCAGGTGAGTGGTTTAAAAAGCGTCTAGCCAAGCCAACAGCACTAGGGATAGTGCTTTCTATATTTTATATTTTCAGTGTATATGGTGACAA
B2: Mumps virus (nucleic acid, listed as Mumps orthorubulavirus)
DNA: ACCAAGGGGAAAATGAAGATGGGATGTTGGTAGAACAAATAGTGTAAGAAACAGTAAGCCCGGAAGTGGTGTTTTGCGATTTCGAGGCCGGGCTCGATCCTCACCTTTCATTGTCGATAGGGGACATTTTGACACTACCTGGAAA
B3: Mouse Mosavirus (nucleic acid, listed as Mosavirus sp.)
DNA: GAAGTTGATCATGAACTTGGTTATTGGTGGAACGCACATGAACTCCCAACAATGATCTTGAAGACACAGCGTGGTAACAATTACCATGCCCTTGTGGCTGCCCAAGACATTGATGGCTATTGGGTGATTTATGATGAC
B4: Phopivirus strain NewEngland (nucleic acid)
DNA: GGGAGTAAACCTCACCACCGTTTGCCGTGGTTTACGGCTACCTATTTTTGGATGTAAATATTAATTCCTGCAGGTTCAGGTCTCTTGAATTATGTCCACGCTAGTGGCACTCTCTTACCCATAAGTGACGCCTTAGCGGAACCTTTCTACACTTGATGTGGTTAGGGGTTACATTATTTCCCTGGGCCTTCTTTGGCCCTTTTTCCCCTGCACTATCATTCTTTCTTCCGGGCTCTCAGCATGCCAATGTTCCGACCGGTGCGCCCGCCGGGGTTAACTCCATGGTTAGCATGGAGCTGTAGGCCCTAAAAGTGCTGACACTGGAACTGGACTATTGAAGCATACACTGTTAACTGAAACATGTAACTCCAATCGATCTTCTACAAGGGGTAGGCTACGGGTGAAACCCCTTAGGTTAATACTCATATTGAGAGATACTTCTGATAGGTTAAGGTTGCTGGATAATGGTGAGTTTAACGACAAAAACCATTCAACAGCTGTGGGCCAACCTCATCAGGTAGATGCTTTTGGAGCCAAGTGCGTAGGGGTGTGTGTGGAAATGCTTCAGTGGAAGGTGCCCTCCCGAAAGGTCGTAGGGGTAATCAGGGGCAGTTAGGTTTCCACAATTACAATTTGAA
B5: Miniopterus schreibersii picornavirus 1 (nucleic acid)
DNA: GTTGTCGACCCGTTGCTTGGTTTAAGCATGAGGTGGATTCCCCCGATTATGTCTACCCGTTACTATGGCGGGCGGTCGTTTCAGGGTGTTTCTACTGAGGACTGCACCAAGTCTTTATCTTTTATTCTCAGATCTCCGGCTGTTTGACGCTTGTAGGACAGCAGGACTATTTTCTCTTAATCTTTTTCTACCCACTAGGGTCCTATCCTAGTGGAGGGAGGGTGCCACCCCTTCTCTCTTTAGAGAGTGCGCCTGGCGGTCTTTCCGTCTCTGGAAAAAGGAGCACATGGCATGCTACAATTGGCACAAGAAAACAAGCTTTGCGGATTCTTTCTTTGTACTAGAGGAAGCTGTAGCGACCCTGTATGGCGAGCGGACTCCCCTCTCGGCGACGAGAGCCTCTCGGGCCAAAAGCCAAGTGTTAATAGCACCCATACAGGCGGCAGTACCCCACTGCCCTTTCTCAACATACAATGACTGATGAACCACTGTTGGTTTTTCTGACACCTTTGTAGTAGGATTCCAAGGAATGTCCTGAAGGTACCCTGTTAGCTTACGCGCAGGATCTGATCAGGAGTCTCTTTACAGTGCTGTACACTGTGCAAGGGATTAAAAATTGTTTGAGGAATCCCCGAGATAGTGGTCTATCTCTTCCTATTTTGTTTTACAGACACG
B6: Linda virus (nucleic acid)
DNA: GTATAGCAGCAGTAGCTCAAGGCTGCTATACGATTGGACATACCAAATTCCAATTGGTGTTAGGGACCACCTAGGTGAAGGCCGACGACAGGTAGCCATTCCTGTTAGTAGGACGAACCGTTATGGTGGACTGGTTGCTCAGGTGAGCAGGCTGCAATGCGTAAGTGGTGAGTACACCACAGCCGTCAAAGGTGCCACTGGTAAGGATCACCCACTGGCGATGCCTTGTGGACGGGGGCGTGCCCAACGCAATGTTAGCGGTGGCGGGGGCTGCCATCGTGAAAGCTAGGTCTTGATGGACCTTGTTGCCTGTACAGTCTGATAGGATGCCGGCGGATGCCCTGTGACAGCCAGTATAAAGAATATCCGTTGTGATTGCAC
B7: Lesavirus 1 (nucleic acid)
DNA: GTAACTAATAAGCAAGTTTTACTGCCTGCAAACTGCTTCAATGGGACCACCGCTTCGGCGACCCCTTTGTTGAGTTTGTATGTTTTTAAGTAATCTTTGCAACCATACGATTATTTTAGCCGCCTCTCTATAATGATCTTGTTATAGTGGGACGTGAAACATTGGTTTTTCTCACACACGTCCGGTCACCCGGGCGTGTGTTCTTCCGTAAGTCCTATCCACATACCATCGTGGGTAGGCCAGCATGTTTGCACAGGCTGTGACAGTGTGGGTGGGCTTTCCACCTCTCAACAACACACTGAATTGCAATGCACTCACGGAGGAAATGACAATTTGGTTATAGTTTTGAACTGTGCTAGTAATTTCTTTCACATTAAGCCATGTTGCCTGCGGAATCACATGTGGTAACACATGCCTCAGGGCCCAAAAGGCACGGGTTAGCAGCCCCTTCATGGTGTGTTAGAAGTGAAAACACATAGTATGAGCTATAATATCTTTGTTGTCTTCTCTGTAGTGTACCCCGCCAAATGTAAGGATGCCCAGCAGGTACCCATTTTATGGATCTGAGCTGGGGATTGATAGTGTATCTATAAATGCACTGATCAATTTAAAAAGCGTCTAAGTTTGGCACAAACACTGGGGACAGTGTTTTTCCTTTATTCTTTTATTTGATTA
B8: Jingmen picorna-like virus (nucleic acid)
DNA: TGTGTTTTTGTCAAGATAATTGTTCTGTGATTAACAGTGATTGTGGTTCGTGTAATGCGACGCAGTCAAATGCTAGTTTTGATGAAGTGTATGAGAGAGTGGAAAACTTATCTCATAAGAAGATTGAAGAGTGTGTAGATCAGGCTATTGATCGAGCTTCTAAGCTTCGTGATTACAAGCTTAATGTTCACAATGGCTCCCGACGGGAATCATCTGATCCTCTCTTTATTTCGCCCCATTCGTTGTTATCGCTTGGGGTATCTAAGTTTGTTGCGTTTGAGCAGCATCACAGTTTCGCTTCAGTTGAGTCTCTGAAGTTGCTTGCTCTGTCT

Each molecule was assayed on HEK293 cells. Details: luminescence from secreted Gluc in supernatant 24 hours after transfection of HEK293 cells; circular RNA encoding Gluc with the named IRES (UTR truncated to 675 nt).
Assay type: cell-based, human

| Molecule | Expression |
| --- | --- |
| B1 | 3.67E+07 |
| B2 | 1.47E+05 |
| B3 | 9.00E+04 |
| B4 | 1.06E+05 |
| B5 | 6.05E+06 |
| B6 | 7.37E+05 |
| B7 | 6.37E+06 |
| B8 | 9.32E+04 |

Source: US20230226096A1 (Orna Therapeutics, Inc., priority 2020, published 2023)
